Patent US11325966

Experiments:
Experiment in all cases: cell-based or functional assay
[1] = biological target: HIV-1 Env of pseudovirus 211-9 (HIV-1)
[2] = biological target: HIV-1 Env of pseudovirus X2131_C1_B5 (HIV-1)
[3] = biological target: HIV-1 Env of pseudovirus 1054_07_TC4_1499 (HIV-1)
[4] = biological target: HIV-1 Env of pseudovirus PVO.4 (HIV-1)
[5] = biological target: HIV-1 Env of pseudovirus Ce704809221_1B3 (HIV-1)
[6] = biological target: HIV-1 Env of pseudovirus T257-31 (HIV-1)
[7] = biological target: HIV-1 Env of pseudovirus THRO4156.18 (HIV-1)
[8] = biological target: HIV-1 Env of pseudovirus BJOX028000.10.3 (HIV-1)
[9] = biological target: HIV-1 Env of pseudovirus 620345.c01 (HIV-1)
[10] = biological target: HIV-1 Env of pseudovirus QH0692.42 (HIV-1)
[11] = biological target: HIV-1 Env of pseudovirus CAP210.2.00.E8 (HIV-1)
[12] = biological target: HIV-1 Env of pseudovirus 6480.v4.c25 (HIV-1)
[13] = biological target: HIV-1 Env of pseudovirus CNE20 (HIV-1)
[14] = biological target: HIV-1 Env of pseudovirus A07412M1.vrc12 (HIV-1)
[15] = biological target: HIV-1 Env of pseudovirus ZM214M.PL15 (HIV-1)
[16] = biological target: HIV-1 Env of pseudovirus X2088_c9 (HIV-1)
[17] = biological target: HIV-1 Env of pseudovirus 1394C9G1(Rev-) (HIV-1)
[18] = biological target: HIV-1 Env of pseudovirus 3016.v5.c45 (HIV-1)
[19] = biological target: HIV-1 Env of pseudovirus X1632_S2_B10 (HIV-1)
[20] = biological target: HIV-1 Env of pseudovirus 1006_11_C3_1601 (HIV-1)
[21] = biological target: HIV-1 Env of pseudovirus X1254_c3 (HIV-1)
[22] = biological target: HIV-1 Env of pseudovirus AC10.0.29 (HIV-1)
[23] = biological target: HIV-1 Env of pseudovirus ZM109F.PB4 (HIV-1)
[24] = biological target: HIV-1 Env of pseudovirus ZM135M.PE10a (HIV-1)
[25] = biological target: HIV-1 Env of pseudovirus CNE17 (HIV-1)
[26] = biological target: HIV-1 Env of pseudovirus CAAN5342.A2 (HIV-1)
[27] = biological target: HIV-1 Env of pseudovirus R3265.c06 (HIV-1)
[28] = biological target: HIV-1 Env of pseudovirus Q461.e2 (HIV-1)
[29] = biological target: HIV-1 Env of pseudovirus 231966.c02 (HIV-1)
[30] = biological target: HIV-1 Env of pseudovirus T255-34 (HIV-1)
[31] = biological target: HIV-1 Env of pseudovirus CNE30 (HIV-1)
[32] = biological target: HIV-1 Env of pseudovirus 3365.v2.c2 (HIV-1)
[33] = biological target: HIV-1 Env of pseudovirus 6540.v4.c1 (HIV-1)
[34] = biological target: HIV-1 Env of pseudovirus 89-F1_2_25 (HIV-1)
[35] = biological target: HIV-1 Env of pseudovirus 231965.c01 (HIV-1)
[36] = biological target: HIV-1 Env of pseudovirus Ce703010054_2A2 (HIV-1)
[37] = biological target: HIV-1 Env of pseudovirus C4118.c09 (HIV-1)
[38] = biological target: HIV-1 Env of pseudovirus T251-18 (HIV-1)
[39] = biological target: HIV-1 Env of pseudovirus CAP45.2.00.G3 (HIV-1)

B1: 10-1074 (antibody, V domains shown)
VH: QVQLQESGPGLVKPSETLSVTCSVSGDSMNNYYWTWIRQSPGKGLEWIGYISDRESATYNPSLNSRVVISRDTSKNQLSLKLNSVTPADTAVYYCATARRGQRIYGVVSFGEFFYYYSMDVWGKGTTVTVSS
VL: SYVRPLSVALGETARISCGRQALGSRAVQWYQHRPGQAPILLIYNNQDRPSGIPERFSGTPDINFGTRATLTISGVEAGDEADYYCHMWDSRSGFSWSFGGATRLTVL
With B1 the IC50 in TZM-bl assay [1] was 0.065 mg/L, the IC80 in TZM-bl assay [1] was 0.403 mg/L and the IC50 in TZM-bl assay [2] was 0.014 mg/L. The IC80 in TZM-bl assay [2] was 0.056 mg/L, the IC50 in TZM-bl assay [3] was 0.048 mg/L and the IC80 in TZM-bl assay [3] was 0.222 mg/L. It also gave an IC50 in TZM-bl assay [4] of 0.072 mg/L, an IC80 in TZM-bl assay [4] of 0.252 mg/L and an IC50 in TZM-bl assay [5] of 0.084 mg/L. For the same binder, the IC80 in TZM-bl assay [5] was 0.395 mg/L, the IC50 in TZM-bl assay [6] was > 10 mg/L and the IC80 in TZM-bl assay [6] was > 10 mg/L. The IC50 in TZM-bl assay [7] was > 10 mg/L, the IC80 in TZM-bl assay [7] was > 10 mg/L and the IC50 in TZM-bl assay [8] was > 10 mg/L. For the same binder, the IC80 in TZM-bl assay [8] was > 10 mg/L, the IC50 in TZM-bl assay [9] was > 10 mg/L and the IC80 in TZM-bl assay [9] was > 10 mg/L. The IC50 in TZM-bl assay [10] was 0.106 mg/L, the IC80 in TZM-bl assay [10] was 0.383 mg/L and the IC50 in TZM-bl assay [11] was > 10 mg/L. The IC80 in TZM-bl assay [11] was > 10 mg/L, the IC50 in TZM-bl assay [12] was 0.006 mg/L and the IC80 in TZM-bl assay [12] was 0.023 mg/L. For the same binder, the IC50 in TZM-bl assay [13] was 0.002 mg/L, the IC80 in TZM-bl assay [13] was 0.005 mg/L and the IC50 in TZM-bl assay [14] was 0.011 mg/L. For the same binder, the IC80 in TZM-bl assay [14] was 0.037 mg/L, the IC50 in TZM-bl assay [15] was 0.415 mg/L and the IC80 in TZM-bl assay [15] was 2.97 mg/L. It also gave an IC50 in TZM-bl assay [16] of 0.003 mg/L, an IC80 in TZM-bl assay [16] of 0.01 mg/L and an IC50 in TZM-bl assay [17] of 0.031 mg/L. The IC80 in TZM-bl assay [17] was 0.093 mg/L, the IC50 in TZM-bl assay [18] was > 10 mg/L and the IC80 in TZM-bl assay [18] was > 10 mg/L. The IC50 in TZM-bl assay [19] was > 10 mg/L, the IC80 in TZM-bl assay [19] was > 10 mg/L and the IC50 in TZM-bl assay [20] was 0.002 mg/L. The IC80 in TZM-bl assay [20] was 0.006 mg/L, the IC50 in TZM-bl assay [21] was 0.063 mg/L and the IC80 in TZM-bl assay [21] was 0.239 mg/L. The IC50 in TZM-bl assay [22] was 0.015 mg/L, the IC80 in TZM-bl assay [22] was 0.043 mg/L and the IC50 in TZM-bl assay [23] was > 10 mg/L. For the same binder, the IC80 in TZM-bl assay [23] was > 10 mg/L, the IC50 in TZM-bl assay [24] was 0.061 mg/L and the IC80 in TZM-bl assay [24] was 0.263 mg/L. It also gave an IC50 in TZM-bl assay [25] of 1.18 mg/L, an IC80 in TZM-bl assay [25] of 4.85 mg/L and an IC50 in TZM-bl assay [26] of 0.005 mg/L. The IC80 in TZM-bl assay [26] was 0.019 mg/L, the IC50 in TZM-bl assay [27] was > 10 mg/L and the IC80 in TZM-bl assay [27] was > 10 mg/L. The IC50 in TZM-bl assay [28] was > 10 mg/L, the IC80 in TZM-bl assay [28] was > 10 mg/L and the IC50 in TZM-bl assay [29] was > 10 mg/L. For the same binder, the IC80 in TZM-bl assay [29] was > 10 mg/L, the IC50 in TZM-bl assay [30] was > 10 mg/L and the IC80 in TZM-bl assay [30] was > 10 mg/L. It also gave an IC50 in TZM-bl assay [31] of 0.261 mg/L, an IC80 in TZM-bl assay [31] of 0.678 mg/L and an IC50 in TZM-bl assay [32] of 0.057 mg/L. For the same binder, the IC80 in TZM-bl assay [32] was 0.2 mg/L, the IC50 in TZM-bl assay [33] was > 10 mg/L and the IC80 in TZM-bl assay [33] was > 10 mg/L. The IC50 in TZM-bl assay [34] was > 10 mg/L, the IC80 in TZM-bl assay [34] was > 10 mg/L and the IC50 in TZM-bl assay [35] was > 10 mg/L. The IC80 in TZM-bl assay [35] was > 10 mg/L, the IC50 in TZM-bl assay [36] was > 10 mg/L and the IC80 in TZM-bl assay [36] was > 10 mg/L. The IC50 in TZM-bl assay [37] was > 10 mg/L, the IC80 in TZM-bl assay [37] was > 10 mg/L and the IC50 in TZM-bl assay [38] was 0.399 mg/L. The IC80 in TZM-bl assay [38] was 2.29 mg/L, the IC50 in TZM-bl assay [39] was > 10 mg/L and the IC80 in TZM-bl assay [39] was > 10 mg/L.
